Like-named read-outs stand apart in the source and are kept apart here.
Legend:
Assay in all cases: MST
[1] = biological target: FgHapX, 6xHis-tagged recombinant protein (Fusarium graminearum PH-1)
[2] = biological target: T1, FgSreA, 6xHis-tagged recombinant protein (Fusarium graminearum PH-1)
[3] = biological target: T1, FgSreA, 6xHis-tagged recombinant protein; remark: listed apart in the source

Binder | Kd [1] [µM] | Kd [2] [µM] | Kd [3] [µM]
FgUbp8, 6xHis-tagged recombinant protein (natural protein) MSARPTTPASPKNVRVKSPVPGLPMFGCEHIQLLLSKNQEVMNSSITHYKLILRGIFDATPIVPQTSTLDGRPVTSLTSNYLCLQCPSTVTEEERLRHGTKKQHRFYVDSRSGCLYCQICDDYIWDPTLEELRVRKIGTGSFSGRKRKHDELFTGSFKDDPRFISSNTNTASCRANGLRGIYNAGATCYQNVVLQSFLHNPLLRNFYLSDGHQSSDCQVSHCLSCAMDDMFQDFYALETTNGYTAANILSGFWISEKKAFENLVTTKEQDAHEFFQFLAEELHERNGDGKKPEIGSEHSCNCIMHQTFYGKMQTTTTCQNCSGQSNSIQSFLDLSLGLDNVVQKKSKRTGQKKPTVSLQDCLDEEYIKYDKCEYRCNNCNGTQQAKRHTSIKRLPNVLSIQLKRFEYKHGRHDRAASKVDNEVKFPLQLNMMPYTNRIRNHDSRESLELERSCTYDLLSVVVHVGELDTGHYTSYCRVGDQWFKFNDHKVELASLSDVLGAQAYLLFYIIRSLA | 1.9 | – | –
FgSwc6, 6xHis-tagged recombinant protein (natural protein) MNNFGVIELASAKTTSAPGWAYVPDNTISRPTAPTNRKRARNVPGLTYSDLTARQDNKIRKEVEALDKDGGKDNTIPLPVKSGRVQGKHTPNVRKILQSQKTFGNHLDDFLAMQALVESNPAISRASGANSKRPSVSRKDTPSSSKPPPDEDTTMTDANLQPLLPEPSRSPPASHPGDYNPLLVSRVPDMPSDEELRRLLAHPPLNYGEATGTRDTKYPARSFCEVCGYWGRVRCMKCGTRVCALDCLEAHKEECVTRYGP | – | 398 | 3.04

Reference: publication PMC10602907 (2023)
